Positions of bridges follow the written chain, without caps; N, C: chain ends. No end group written: not given here.
T1: rat NPR-A (rat, UniProt P18910 29-1057)
T1 sequence (looked up): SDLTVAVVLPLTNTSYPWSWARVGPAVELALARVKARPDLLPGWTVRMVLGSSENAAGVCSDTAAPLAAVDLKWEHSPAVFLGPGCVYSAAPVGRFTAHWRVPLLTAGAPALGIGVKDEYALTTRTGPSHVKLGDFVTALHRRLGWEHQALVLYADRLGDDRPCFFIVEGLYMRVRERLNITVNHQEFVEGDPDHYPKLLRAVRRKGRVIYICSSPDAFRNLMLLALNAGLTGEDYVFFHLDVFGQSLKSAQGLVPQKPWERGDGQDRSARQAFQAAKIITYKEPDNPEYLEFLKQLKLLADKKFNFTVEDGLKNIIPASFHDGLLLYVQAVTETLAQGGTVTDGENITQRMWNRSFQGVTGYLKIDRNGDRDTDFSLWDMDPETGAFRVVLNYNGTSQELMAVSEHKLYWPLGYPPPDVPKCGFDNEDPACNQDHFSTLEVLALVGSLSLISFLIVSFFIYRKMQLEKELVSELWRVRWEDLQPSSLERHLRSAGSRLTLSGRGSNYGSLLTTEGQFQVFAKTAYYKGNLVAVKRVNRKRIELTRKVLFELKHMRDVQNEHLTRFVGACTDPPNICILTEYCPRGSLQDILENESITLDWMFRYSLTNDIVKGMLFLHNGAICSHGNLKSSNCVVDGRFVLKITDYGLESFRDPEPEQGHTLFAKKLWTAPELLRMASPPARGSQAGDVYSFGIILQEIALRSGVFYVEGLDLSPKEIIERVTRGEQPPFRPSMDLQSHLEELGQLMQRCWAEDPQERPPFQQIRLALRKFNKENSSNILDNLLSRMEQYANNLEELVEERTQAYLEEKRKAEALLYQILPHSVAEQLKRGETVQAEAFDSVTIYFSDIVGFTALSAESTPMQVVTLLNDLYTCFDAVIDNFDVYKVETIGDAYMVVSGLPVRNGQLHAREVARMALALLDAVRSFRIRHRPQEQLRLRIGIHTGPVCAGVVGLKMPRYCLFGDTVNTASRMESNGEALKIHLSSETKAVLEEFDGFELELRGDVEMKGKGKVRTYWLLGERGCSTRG


Target: T1, rat NPR-A
Assay: cell-based or functional assay

Binder | NPR-A activation potency IC50 | NPR-A activation potency: Ratio compared ANP | NPR-A activation potency: Ratio compared wild type NPs | Rate of generation of cGMP (pmol cGMP/pmol peptide) | Rate of generation of cGMP: Ratio compared ANP | Rate of generation of cGMP: Ratio compared wild type NPs
GLLISCFDRRIDRISHTSDIGCRH (disulfide 6-22) [K-Ring] | 244 nM | 14.1 ratio | 1 ratio | 0.0228 pmol cGMP/pmol peptide | 350 ratio | 1 ratio
GLLISCFDRRIDRISHTSGIGCRH (disulfide 6-22) [^DRGK-Ring] | 694 nM | 40.1 ratio | 2.8 ratio | 0.007 pmol cGMP/pmol peptide | 1140 ratio | 3.2 ratio
GLLISCFDRRIDRISHTSDIGCNSFRY (disulfide 6-22) [K-Ring^NSFRY] | 43.8 nM | 2.5 ratio | -5.6 ratio | 0.31 pmol cGMP/pmol peptide | 25.7 ratio | 13.6 ratio
GLLISCFGRRIDRISHTSGIGCRH (disulfide 6-22) [^GRGK-Ring] | 87.7 nM | 5.1 ratio | -2.8 ratio | 0.19 pmol cGMP/pmol peptide | 41.9 ratio | 8.3 ratio
SLRRSSCFDGRMDRIGAQSDLGCNSFRY (disulfide 7-23 (inferred)) [^DGDANP] | 135 nM | 7.8 ratio | 7.8 ratio | 0.14 pmol cGMP/pmol peptide | 56.9 ratio | 56.9 ratio
SLRRSSCFDRRMDRIGAQSDLGCNSFRY (disulfide 7-23 (inferred)) [^DRDANP] | 45.2 nM | 2.6 ratio | 2.6 ratio | 0.38 pmol cGMP/pmol peptide | 21 ratio | 21 ratio
GLLISCFGRRIDRISHTSDIGCRH (disulfide 6-22) [^GRDK-Ring] | 50.7 nM | 2.9 ratio | -4.8 ratio | 0.113 pmol cGMP/pmol peptide | 70.5 ratio | 5 ratio
GLLISCFDGRIDRISHTSDIGCRH (disulfide 6-22) [^DGDK-Ring] | 866 nM | 50.1 ratio | 3.6 ratio | 0.005 pmol cGMP/pmol peptide | 1590 ratio | 4.6 ratio

Target: T1, rat NPR-A
Assay: cell-based or functional assay
Remark: another data set of the same source

Binder | time to produce similar levels of cGMP (time-chase at EC50 concentration) | activation kinetics compared to K-Ring | potency of cGMP response compared to K-Ring
GLLISCFDRRIDRISHTSDIGCRH (disulfide 6-22) [K-Ring] | 30 min | – | –
GLLISCFGRRIDRISHTSGIGCRH (disulfide 6-22) [^GRGK-Ring] | – | 3 fold | 4 fold

Reference: patent publication US20190211071A1 (NATIONAL UNIVERSITY OF SINGAPORE, published 2019)
